{"source": "IntAct's records for PubMed 21944579", "parents": {"B1": {"name": "Low-density lipoprotein receptor-related protein 6 (Homo sapiens), O75581 (parent)", "chain": "MGAVLRSLLACSFCVLLRAAPLLLYANRRDLRLVDATNGKENATIVVGGLEDAAAVDFVFSHGLIYWSDVSEEAIKRTEFNKTESVQNVVVSGLLSPDGLACDWLGEKLYWTDSETNRIEVSNLDGSLRKVLFWQELDQPRAIALDPSSGFMYWTDWGEVPKIERAGMDGSSRFIIINSEIYWPNGLTLDYEEQKLYWADAKLNFIHKSNLDGTNRQAVVKGSLPHPFALTLFEDILYWTDWSTHSILACNKYTGEGLREIHSDIFSPMDIHAFSQQRQPNATNPCGIDNGGCSHLCLMSPVKPFYQCACPTGVKLLENGKTCKDGATELLLLARRTDLRRISLDTPDFTDIVLQLEDIRHAIAIDYDPVEGYIYWTDDEVRAIRRSFIDGSGSQFVVTAQIAHPDGIAVDWVARNLYWTDTGTDRIEVTRLNGTMRKILISEDLEEPRAIVLDPMVGYMYWTDWGEIPKIERAALDGSDRVVLVNTSLGWPNGLALDYDEGKIYWGDAKTDKIEVMNTDGTGRRVLVEDKIPHIFGFTLLGDYVYWTDWQRRSIERVHKRSAEREVIIDQLPDLMGLKATNVHRVIGSNPCAEENGGCSHLCLYRPQGLRCACPIGFELISDMKTCIVPEAFLLFSRRADIRRISLETNNNNVAIPLTGVKEASALDFDVTDNRIYWTDISLKTISRAFMNGSALEHVVEFGLDYPEGMAVDWLGKNLYWADTGTNRIEVSKLDGQHRQVLVWKDLDSPRALALDPAEGFMYWTEWGGKPKIDRAAMDGSERTTLVPNVGRANGLTIDYAKRRLYWTDLDTNLIESSNMLGLNREVIADDLPHPFGLTQYQDYIYWTDWSRRSIERANKTSGQNRTIIQGHLDYVMDILVFHSSRQSGWNECASSNGHCSHLCLAVPVGGFVCGCPAHYSLNADNRTCSAPTTFLLFSQKSAINRMVIDEQQSPDIILPIHSLRNVRAIDYDPLDKQLYWIDSRQNMIRKAQEDGSQGFTVVVSSVPSQNLEIQPYDLSIDIYSRYIYWTCEATNVINVTRLDGRSVGVVLKGEQDRPRAVVVNPEKGYMYFTNLQERSPKIERAALDGTEREVLFFSGLSKPIALALDSRLGKLFWADSDLRRIESSDLSGANRIVLEDSNILQPVGLTVFENWLYWIDKQQQMIEKIDMTGREGRTKVQARIAQLSDIHAVKELNLQEYRQHPCAQDNGGCSHICLVKGDGTTRCSCPMHLVLLQDELSCGEPPTCSPQQFTCFTGEIDCIPVAWRCDGFTECEDHSDELNCPVCSESQFQCASGQCIDGALRCNGDANCQDKSDEKNCEVLCLIDQFRCANGQCIGKHKKCDHNVDCSDKSDELDCYPTEEPAPQATNTVGSVIGVIVTIFVSGTVYFICQRMLCPRMKGDGETMTNDYVVHGPASVPLGYVPHPSSLSGSLPGMSRGKSMISSLSIMGGSSGPPYDRAHVTGASSSSSSSTKGTYFPAILNPPPSPATERSHYTMEFGYSSNSPSTHRSYSYRPYSYRHFAPPTTPCSTDVCDSDYAPSRRMTSVATAKGYTSDLNYDSEPVPPPPTPRSQYLSAEENYESCPPSPYTERSYSHHLYPPPPSPCTDSS"}, "B2": {"name": "Sclerostin (Homo sapiens), Q9BQB4 (parent)", "chain": "MQLPLALCLVCLLVHTAFRVVEGQGWQAFKNDATEIIPELGEYPEPPPELENNKTMNRAENGGRPPHHPFETKDVSEYSCRELHFTRYVTDGPCRSAKPVTELVCSGQCGPARLLPNAIGRGKWWRPSGPDFRCIPDRYRAQRVQLLCPGGEAPRARKVRLVASCKCKRLTRFHNQSELKDFGTEAARPQKGRKPRPRARSAKANQAELENAY"}, "B3": {"name": "Low-density lipoprotein receptor-related protein 6 (Homo sapiens), O75581 (parent)", "chain": "B1 chain", "partner": "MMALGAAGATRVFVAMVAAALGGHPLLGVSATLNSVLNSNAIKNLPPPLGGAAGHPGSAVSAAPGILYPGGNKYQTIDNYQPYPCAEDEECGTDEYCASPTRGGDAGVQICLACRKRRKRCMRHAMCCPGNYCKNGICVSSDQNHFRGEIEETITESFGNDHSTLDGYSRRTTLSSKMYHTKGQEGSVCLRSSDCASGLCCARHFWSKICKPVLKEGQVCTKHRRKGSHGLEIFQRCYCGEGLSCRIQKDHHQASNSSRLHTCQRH"}, "B4": {"name": "Dickkopf-related protein 1 (Homo sapiens), O94907 (parent)", "chain": "B3 partner"}}}
{"variants_of": "B1", "details": "with sost_human SOST"}
{"variant": "A201V", "effect of a mutation on the interaction": "disrupting interaction"}
{"variant": "N185S", "effect of a mutation on the interaction": "disrupting interaction"}
{"variant": "D98Y", "effect of a mutation on the interaction": "disrupting interaction"}
{"variant": "A229T", "effect of a mutation on the interaction": "disrupting interaction"}
{"variant": "R141M", "effect of a mutation on the interaction": "disrupting interaction"}
{"variants_of": "B2", "details": "with lrp6_human LRP6, O75581"}
{"variant": "N117A", "effect of a mutation on the interaction": "decreasing interaction"}
{"variant": "I119E", "effect of a mutation on the interaction": "decreasing interaction"}
{"variants_of": "B3", "details": "with dkk1_human DKK1, O94907"}
{"variant": "A229T", "effect of a mutation on the interaction": "disrupting interaction"}
{"variant": "N185S", "effect of a mutation on the interaction": "disrupting interaction"}
{"variant": "A201V", "effect of a mutation on the interaction": "disrupting interaction"}
{"variant": "R141M", "effect of a mutation on the interaction": "disrupting interaction"}
{"variant": "D98Y", "effect of a mutation on the interaction": "disrupting interaction"}
{"variants_of": "B4", "details": "with lrp6_human LRP6, O75581"}
{"variant": "MMALGAAGATRVFVAMVAAALGGHPLLGVSATLNSVLNSNAIKNLPPPLGGAAGHPGSAVSAAPGILYPGGNKYQTIDNYQPYPCAEDEECGTDEYCASPTRGGDAGVQICLACRKRRKRCMRHAMCCPGNYCKNGICVSSDQNHFRGEIEETITESFGNDHSTLDGYSRRTTLSSKMYHTKGQEGSVCLRSSDCASGLCCARHFWSKICEPVLKEGQVCTKHRRKGSHGLEIFQRCYCGEGLSCRIQKDHHQASNSSRLHTCQRH", "note": "[K211E]", "effect of a mutation on the interaction": "disrupting interaction"}
{"variant": "MMALGAAGATRVFVAMVAAALGGHPLLGVSATLNSVLNSNAIKNLPPPLGGAAGHPGSAVSAAPGILYPGGNKYQTIDNYQPYPCAEDEECGTDEYCASPTRGGDAGVQICLACRKRRKRCMRHAMCCPGNYCKNGICVSSDQNHFRGEIEETITESFGNDHSTLDGYSRRTTLSSKMYHTKGQEGSVCLRSSDCASGLCCAREFWSKICKPVLKEGQVCTKHRRKGSHGLEIFQRCYCGEGLSCRIQKDHHQASNSSRLHTCQRH", "note": "[H204E]", "effect of a mutation on the interaction": "disrupting interaction"}
{"variants_of": "B4", "details": "with lrp6_human LRP6, O75581", "remark": "another data set of the same source"}
{"variant": "MMALGAAGATRVFVAMVAAALGGHPLLGVSATLNSVLNSAAIKNLPPPLGGAAGHPGSAVSAAPGILYPGGNKYQTIDNYQPYPCAEDEECGTDEYCASPTRGGDAGVQICLACRKRRKRCMRHAMCCPGNYCKNGICVSSDQNHFRGEIEETITESFGNDHSTLDGYSRRTTLSSKMYHTKGQEGSVCLRSSDCASGLCCARHFWSKICKPVLKEGQVCTKHRRKGSHGLEIFQRCYCGEGLSCRIQKDHHQASNSSRLHTCQRH", "note": "[N40A]", "effect of a mutation on the interaction": "decreasing interaction"}
{"variant": "MMALGAAGATRVFVAMVAAALGGHPLLGVSATLNSVLNSNAEKNLPPPLGGAAGHPGSAVSAAPGILYPGGNKYQTIDNYQPYPCAEDEECGTDEYCASPTRGGDAGVQICLACRKRRKRCMRHAMCCPGNYCKNGICVSSDQNHFRGEIEETITESFGNDHSTLDGYSRRTTLSSKMYHTKGQEGSVCLRSSDCASGLCCARHFWSKICKPVLKEGQVCTKHRRKGSHGLEIFQRCYCGEGLSCRIQKDHHQASNSSRLHTCQRH", "note": "[I42E]", "effect of a mutation on the interaction": "disrupting interaction"}
